# Assay: label from the status in PepcDB records
# 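Further: failed if final PepcDB status was selected cloned or expressed and not failed if soluble or beyond.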
row,Sequence,protein production
1,MDTPNKDDSIIRFSVSLQQNLLDELDNRIIKNGYSSRSELVRDMIREKLVEDNWAEDNPNDESKIAVLVVIYDHHQRELNQRMIDIQHASGTHVLCTTHIHMDEHNCLETIILQGNSFEIQRLQLEIGGLRGVKFAKLTKASSFEYNE,failed
2,MDTQSLVPLSTLKQGEKAYVVDLELNGLLRRRVLDLGIVPGTSLQCVGTAPAGDPIAYLVRGTVIALRSEDARSIRVNSALV,failed
3,MDTSNATSVVNVSASSSTSTIYDLGNMSKDEVVKLFEELGVFQAAILMFSYMYQAQSNLSIAKFADMNEASKASTTAQKMANLVDAKIADVQSSTDKNAKAKLPQDVIDYINDPRNDISVTGIRDLSGDLSAGDLQTVKAAISAKANNLTTVVNNSQLEIQQMSNTLNLLTSARSDVQSLQYRTISAISLGK,failed
4,MDTVDLRHLDENLHHARTQFEVWARGRLSNLEEVQRTWQETTARVSRETETLVQRRTQFEAAAARLQERLEAEREELDALERGIAQLEARAAALPVRQQELEQEIAERRQEFERRRALLNACEEARRTRLLHLQKALVWYRDRLGLRFQRVGAASATEAGRVDGKVRVIFRHIDSRAPDREFAFTVYVDEDADLFRVEDCVPDIDVMKPTAGAANVRLAQMVETLNRTNDFGAFVAQMRRRFKAWVQMESTDQLAGRQA,failed
5,MDTWKVGPVELKSRLILGSGKYEDFGVMREAIAAAKAEVVTVSVRRVELKAPGHVGLLEALEGVRLLPNTAGARTAEEAVRLARLGRLLTGERWVKLEVIPDPTYLLPDPLETLKAAERLIEEDFLVLPYMGPDLVLAKRLAALGTATVMPLAAPIGSGWGVRTRALLELFAREKASLPPVVVDAGLGLPSHAAEVMELGLDAVLVNTAIAEAQDPPAMAEAFRLAVEAGRKAYLAGPMRPREAASPSSPVEGVPFTPTGPRPGRGPQ,not failed
6,MDTYMIDAELEHYLGERLSSSSRQALCRLHVRACARFHGAELEEYRRRLRAHARAYARLGRMLQSPFRHMETALFLSSFTLFVAGIIMVVNGDLSALVACGTAAGLVGMIECARKLAGHWHRYGVMEAVYRELEEQLANG,failed
7,MDVAGEKQQRKGEAIARIEAEKNAYTVAQLADEYFERMIAGRWKHPNIVRSRIEKDIKPAIGSLKVEDVKPRHIDDVLKAVMKRGAPSIANDTLRWLKRMFNYAIKRHIIEYNPAAAFLEHHHHHH,failed
8,MDVEPGKFYKGVVTRIEKYGAFINLNEQVRGLLRPRDMISLRLENLNVGDEIIVQAIDVRPEKREIDFKYIPLTTYDLVKYEKEVPLSQIKDISQNLEHHHHHH,not failed
9,MDVKTAAALHRLRLISLPEAISFPILLVCSVLKRTTEFDAVFPMGLIHGLLFTFYVIFWADAWNRAKWSKKKAAGYFLLAIPPFGGLFAERKLKREAEDAVIASRARREGTVNA,failed
10,MDVTIERVNDFDGYNWLPLLAKSSQEGFQLVERMLRNRREESFQEDGEAMFVALSTTNQVLACGGYMKQSGQARTGRIRHVYVLPEARSHGIGTALLEKIMSEAFLTYDRLVLYSEQADPFYQGLGFQLVSGEKITHTLDKTAFADSNR,not failed
11,MDVVDSLLVNGSNITPPCELGLENETLFCLDQPRPSKEWQPAVQILLYSLIFLLSVLGNTLVITVLIRNKRMRTVTNIFLLSLAVSDLMLCLFCMPFNLIPNLLKDFIFGSAVCKTTTYFMGTSVSVSTFNLVAISLERYGAICKPLQSRVWQTKSHALKVIAATWCLSFTIMTPYPIYSNLVPFTKNNNQTANMCRFLLPNDVMQQSWHTFLLLILFLIPGIVMMVAYGLISLELYQGIKFEASQKKSAKERKPSTTSSGKYEDSDGCYLQKTRPPRKLELRQLSTGSSSRANRIRSNSSAANLMAKKRVIRMLIVIVVLFFLCWMPIFSANAWRAYDTASAERRLSGTPISFILLLSYTSSCVNPIIYCFMNKRFRLGFMATFPCCPNPGPPGARGEVGEEEEGGTTGASLSRFSYSHMSASVPPQ,failed
12,MDWFSWLSRTNLEASLIYEYGLSFSNNELEYEDIAYFNHEFLQSMGISIAKHRLEILKLARRDRKPSPLTARSIFRVLIAIKKTGKCFSEHVRAWIRREESSRALVVVSRSTSSSGNGRWKSARKKRLVMPSNGNGVKEERLLLTNGTPCRLDSFSNPKVSSGYEDDDNHWGNKDVEEKIKWDSMFQNLKPT,failed
13,MDWGTELWDQFEVLERHTQWGLDLLDRYVKFVKERTEVEQAYAKQLRSLVKKYLPKRPAKDDPESKFSQQQSFVQILQEVNDFAGQRELVAENLSVRVCLELTKYSQEMKQERKMHFQEGRRAQQQLENGFKQLENSKRKFERDCREAEKAAQTAERLDQDINATKADVEKAKQQAHLRSHMAEESKNEYAAQLQRFNRDQAHFYFSQMPQIFDKLQDMDERRATRLGAGYGLLSEAELEVVPIIAKCLEGMKVAANAVDPKNDSHVLIELHKSGFARPGDVEFEDFSQPMNRAPSDSSLGTPSDGRPELRGPGRSRTKRWPFGKKNKTVVTEDFSHLPPEQQRKRLQQQLEERSRELQKEVGQREALKKMKDVYEKTPQMGDSASLEPQIAETLSNIERLKLEVQKYEAWLAEAESRVLSNRGDSLSRHARPPDPPASAPPDSSSNSASQDTKESSEEPPSEESQDTPIYTEFDEDFEEEPTSPIGHCVAIYHFEGSSEGTISMAEGEDLSLMEEDKGDGWTRVRRKEGGEGYVPTSYLRVTLN,not failed
14,MDWTMISGSRDESLHAARDYWRRLNESECFDIEGIEAPPGAIALIPYDCQLPNSFHPLPLWVKLYASAGLHRFNMLEVLVNERSVGKLNIIVPIARPKGVTTNERFIPCDCFSVDDKLPQWPSHDSFNDRKRFYSVKESELQNNDWINLYLELVLCAIQKVRISDSDLSKLKIVKAVIETKEDMVPPNERLNAKTAVVYITFKGLANARIAAGEHYERKAIIRRIFNEHTGHLSLLGDLIGEKKFVNIDPVTYFNSPAYLEDITHELPPESPWMDILAGTGSMDQID,failed
15,MDYPDLAPRARSWAPHLLGVLRIVAAFLFLQFGTAKLFAFPGPVMPGGGTAPLASLAGIAGAIEAFGGALLLVGLFSRPVAFLLSGEMAVAYFYGHAPQGFWPVLNQGTPAALFAFVFLYLAAAGPGRFSLDGLRGKDAP,failed
16,MDYSQFLYMKEELSLIAVILILFVVDLLTCPDQKGATPKVNVRSLTLPAVILMTLHTVINLFPGTPAEAFGGMYQYTPMQTIIKAVLNVGTIIVLLMAHEWLKREDTRIKQGEFYVLTLSTLLGMYFMISAGHFLMFFIGLEMASIPMAALVAFDKYRHHSAEAGAKYILTALFSSALLLFGLSMIYGTSGTLYFNDLPGHITGNMLQIMAFVFFFAGMGFKISLVPFHLWTADVYEGAPTAVTSYLSVISKGSAAFVLMTILMKVFAPMVAQWQEVLFWVTIASITIANLFAIRQQNLKRFMAFSAISQAGYIMLGVIGGSEMGMTALVYYVLVYLAANLGVFAVISIVEQRSNKVEIDDYNGLYKTNPKLAFIMTLALFSLAGIPPFAGFFSKFFIFMAAFNSGFHLLVFIALINTVVSLYYYLLIVKAMYINPNEEPIPTFRSDNYTKVSLVLCTLGIIALGIASCIYQGIDKFSFGMGM,failed
17,MEADRGRNNKVRCAVVDTNVLMYVYLNKADVVGQLREFGFSRFLITASVKRELEKLEMSLRGKEKVAARFALKLLEHFEVVETESEGDPSLIEAAEKYGCILITNDKELKRKAKQRGIPVGYLKEDKRVFVELLD,not failed
18,MEALAELIKRKVPNEGLIIEVGVGFYLKVAKKLKEYGFNVVVVDINQEAVKNAIKERIPGFVDDVFNPNLKIYLKARAIYSIRPNPEIMMALLTLAKKVKVPLYIVPLSGDVPPREMKLINYKGISVYVWEP,failed
19,MEALGPGGDRASPASSTSSLDLWHLSMRADSAYSSFSAASGGPEPRTQSPGTDLLPYLDWDYVRVVWGGPGPAPPDAALCTSPRPRPAVAARSGPQPTEVPGTPGPLNRQATPLLYALAAEAEAAAQAAEPPSPPASRAAYRQRLQGAQRRVLRETSFQRKELRMSLPARLRPTVPARPPATHPRSASLSHPGGEGEPARSRAPAPGTAGRGPLANQQRKWCFSEPGKLDRVGRGGGPARECLGEACSSSGLPGPEPLEFQHPALAKFEDHEVGWLPETQPQGSMNLDSGSLKLGDAFRPASRSRSASGEVLGSWGGSGGTIPIVQAVPQGAETPRPLFQTKLSRFLPQKEAAVMYPAELPQSSPADSEQRVSETCIVPAWLPSLPDEVFLEEAPLVRMRSPPDPHASQGPPASVHASDQPYGTGLGQRTGQVTVPTEYPLHECPGTAGADDCWQGVNGSVGISRPTSHTPTGTANDNIPTIDPTGLTTNPPTAAESDLLKPVPADALGLSGNDTPGPSHNTALARGTGQPGSRPTWPSQCLEELVQELARLDPSLCDPLASQPSPEPPLGLLDGLIPLAEVRAAMRPACGEAGEEAASTFEPGSYQFSFTQLLPAPREETRLENPATHPVLDQPCGQGLPAPNNSIQGKKVELAARLQKMLQDLHTEQERLQGEAQAWARRQAALEAAVRQACAPQELERFSRFMADLERVLGLLLLLGSRLARVRRALARAASDSDPDEQASLLQRLRLLQRQEEDAKELKEHVARRERAVREVLVRALPVEELRVYCALLAGKAAVLAQQRNLDERIRLLQDQLDAIRDDLGHHAPSPSPARPPGTCPPVQPPFPLLLT,failed
20,MEALVVVHKVASEGGRRPKTTVSDESGSHSREKGKSFQVKDSPENNYATGKVDSLERSHFSSSYNQERRQSEEQRR,failed
21,MEASRFIEIGLLTRPHGLKGEVCVDYYADSPFLLEGTVYLKAGRAAPRPVKVQSMRMHKGRPLVIFEGVNDRTAAELLRGHVMLVPEDTLPELDEDEVYLFELEGISVVIDESGEHLGVIERIDTDAYQEIWVIRTPQGKEVLFPAAAPFVLDIDLDSRTARIAPPPGLLDIYLSD,failed
22,MEATGLITEYNPFHNGHLYHLKKAQELTKADVTIVLMSGNWVQRGLPAITDKWKRAQAAIDAGADLVFELPFYYAVQAGEIFAQGAVRLLSDLQVSSIICGSEHADIDFINLAAHEPDISGNSNFDKKNRTFASNYAAALEEKTGFYLENANDILAFSYAKAILNQNLTEKIKLRTISRVSADYHDQFLNDGEIASATAIRKALSEGQNVDSYTP,failed
23,MEATNLPQPSAPADLGALQRPSYFRRLGPFDWLFAALLALGAGYAFSRYGAYMDGYERGILVAAVPAFAWLGWTWKPVRTLMIGLAVLSLFAIAQYSGPNGPELARADRVFFLKYFLASQSAILWMSALIFLSTLFFWAGLAARWPAGGAIGSKLCWAAVVLGLTGMLVRWYESYLVGADIGHIPISNLYEVFILFTLITSLFYLYYEQRYRTRALGPFVMLVVSAAVGFLLWYTVSRGAQEIQPLVPALQSWWMKIHVPANFIGYGTFALAAMVGAAYLLKEHGVLADRLPSLEVLDDVMYKAITVGFAFFTIATILGALWAADAWGGYWSWDPKETWALIVWLNYAAWLHMRLMKGLRGRMAAWWALVGLLVTTFAFLGVNMFLSGLHSYGEL,failed
24,MEAVDLAFANYAERFARSCKGDGWRRLVERAIRLYLTPVLGKKALPAINRTDVVSVFDNMPADQVANRRNVFAVLRRLFRWAVSRGDLDRSLEHHHHHH,failed
25,MEAVTGYVKRKDLGRAVVQTDLGNPKAWEIRLTILTDEVLSENQKLATQKIDPSCAVDVSIGHGASDSPRGSSLAINEVRCECSSGISESDLETRGLAMIIDFVMRVASLERSVMNKRDLRFARVEKRFPKGKTKLKA,failed
